Target: NY-ESO-1 peptide on HLA-A*02:01 (human)
Experiment: data from [38–40]

## 1G4
  Kd: 10 µM

— article doi:10.1101/2024.06.27.600973
